Data: patent US6849610

Tested on: HCMV intact particles AD169 (Human cytomegalovirus AD169)
Assay: cell_activity
Details: 2'-NH2 on all pyrimidines, plaque formation, 1e5 PFU/ml

GGGAGACAAGAAUAAACGGUCAACUCGAGCCACCCCAUAACCCUCAAUACUCCAGGGAUUGGGUUCGACAUGAGGG [L19]
IC50 (viral yield IC50 35±7 nM): 35 nM

GGGAGACAAGAAUAAACGGUCAAUGUGGGUCGUGUUAAGCUUCGGGCUUCGCGCAAAUCUGGGUUCGACAUGAGGG [L66]
IC50 (viral yield IC50 18±4 nM): 15 nM

GGGAGACAAGAAUAAACGGUCAAUUACGGUCACCUUACCCCUGGGUGUGCUCUUCCCGGUGGGUUCGACAUGAGGG [L13]
IC50 (viral yield IC50 100±20 nM): 125 nM
